This note sets out measurements from article PMC2173783.

Test [1] has as its target bt-SR (bt-SRβ + SRα) (canine). Put plainly: IAsys optical biosensor.
Test [2] deals with bt-SR (bt-SRβ + SRα) (canine). In words: IAsys optical biosensor. This is another data set of the same source.
The target in test [3] is SRP receptor purified from canine pancreas (canine) (UniProt P06625). In words: radioligand binding.
For test [4], the target named is Sec61 complex. In words: radioligand binding.
Test [5] deals with bt-SR (bt-SRβ + SRα) (canine). Put plainly: IAsys optical biosensor. The source holds these as a separate data set.

Like-named read-outs stand apart in the source and are kept apart here.

For the substance “signal recognition particle (from UniProt P61010 1-504) (complex)”, the koff (as a rule, a measure of how fast the partners let go of each other) in test [1] worked out at 0.0065 s⁻¹. In test [2], the koff is 0.0069 s⁻¹ and the kon (in general, a measure of how fast the partners come together) was found to be 48000 M⁻¹ s⁻¹.

On to 80S ribosomes (complex), for which the dissociation constant Kd – broadly, the free concentration of one partner at which half of the binding sites on the other are occupied at equilibrium, for simple one-to-one binding – came to 0.9 nM in test [2], 0.87 nM in test [3], 5.4 nM in test [4] and 1.9 nM in test [5]. Further, the stoichiometry N – broadly, a count of units in the complex or per binding partner – in test [3] was 1.
